B1: cytochrome b of CIII2 (natural protein, Rhodobacter capsulatus)
chain: MSGIPHDHYEPKTGIEKWLHDRLPIVGLVYDTIMIPTPKNLNWWWIWGIVLAFTLVLQIVTGIVLAMHYTPHVDLAFASVEHIMRDVNGGWAMRYIHANGASLFFLAVYIHIFRGLYYGSYKAPREITWIVGMVIYLLMMGTAFMGYVLPWGQMSFWGATVITGLFGAIPGIGPSIQAWLLGGPAVDNATLNRFFSLHYLLPFVIAALVAIHIWAFHTTGNNNPTGVEVRRTSKADAEKDTLPFWPYFVIKDLFALALVLLGFFAVVAYMPNYLGHPDNYVQANPLSTPAHIVPEWYFLPFYAILRAFAADVWVVILVDGLTFGIVDAKFFGVIAMFGAIAVMALAPWLDTSKVRSGAYRPKFRMWFWFLVLDFVVLTWVGAMPTEYPYDWISLIASTYWFAYFLVILPLLGATEKPEPIPASIEEDFNSHYGNPAE

The series “cryo-EM structure” concerns the molecule itself. Kind of series: cryo-EM structure.
In the series “cytochrome b of CIII2” the target is B1. Kind of series: cryo-EM structure.

For the molecule B1, the binding result in the series “cryo-EM structure” is recorded as “binds”.

B2: Rieske FeS protein of CIII2 (natural protein, Rhodobacter capsulatus)
chain: MSHAEDNAGTRRDFLYHATAATGVVVTGAAVWPLINQMNASADVKAMASIFVDVSAVEVGTQLTVKWRGKPVFIRRRDEKDIELARSVPLGALRDTSAENANKPGAEATDENRTLPAFDGTNTGEWLVMLGVCTHLGCVPMGDKSGDFGGWFCPCHGSHYDSAGRIRKGPAPRNLDIPVAAFVDETTIKLG
For the molecule B2, the binding result with cytochrome b of CIII2 is reported as “binds”.

For the origin of these results see article doi:10.1101/2020.06.27.175620 (bioRxiv, 2020).
